# Source: PMC5086056
# Target: AcGFP1-JAK3 (pAcGFP1-JAK3) (Bos taurus) (UniProt E1BEL4)
# Assay: co-IP; Matchmaker Co-IP system; ProLabel enzymatic activity (luminescence, ProLabel detection kit) in protein samples of HEK cells co-transfected with pAcGFP1-JAK3 and a pProLabel prey; read 25 min after addition of the substrate; against the negative control
# UniProt E1BEL4, sequence (E1BEL4 entry or part of it): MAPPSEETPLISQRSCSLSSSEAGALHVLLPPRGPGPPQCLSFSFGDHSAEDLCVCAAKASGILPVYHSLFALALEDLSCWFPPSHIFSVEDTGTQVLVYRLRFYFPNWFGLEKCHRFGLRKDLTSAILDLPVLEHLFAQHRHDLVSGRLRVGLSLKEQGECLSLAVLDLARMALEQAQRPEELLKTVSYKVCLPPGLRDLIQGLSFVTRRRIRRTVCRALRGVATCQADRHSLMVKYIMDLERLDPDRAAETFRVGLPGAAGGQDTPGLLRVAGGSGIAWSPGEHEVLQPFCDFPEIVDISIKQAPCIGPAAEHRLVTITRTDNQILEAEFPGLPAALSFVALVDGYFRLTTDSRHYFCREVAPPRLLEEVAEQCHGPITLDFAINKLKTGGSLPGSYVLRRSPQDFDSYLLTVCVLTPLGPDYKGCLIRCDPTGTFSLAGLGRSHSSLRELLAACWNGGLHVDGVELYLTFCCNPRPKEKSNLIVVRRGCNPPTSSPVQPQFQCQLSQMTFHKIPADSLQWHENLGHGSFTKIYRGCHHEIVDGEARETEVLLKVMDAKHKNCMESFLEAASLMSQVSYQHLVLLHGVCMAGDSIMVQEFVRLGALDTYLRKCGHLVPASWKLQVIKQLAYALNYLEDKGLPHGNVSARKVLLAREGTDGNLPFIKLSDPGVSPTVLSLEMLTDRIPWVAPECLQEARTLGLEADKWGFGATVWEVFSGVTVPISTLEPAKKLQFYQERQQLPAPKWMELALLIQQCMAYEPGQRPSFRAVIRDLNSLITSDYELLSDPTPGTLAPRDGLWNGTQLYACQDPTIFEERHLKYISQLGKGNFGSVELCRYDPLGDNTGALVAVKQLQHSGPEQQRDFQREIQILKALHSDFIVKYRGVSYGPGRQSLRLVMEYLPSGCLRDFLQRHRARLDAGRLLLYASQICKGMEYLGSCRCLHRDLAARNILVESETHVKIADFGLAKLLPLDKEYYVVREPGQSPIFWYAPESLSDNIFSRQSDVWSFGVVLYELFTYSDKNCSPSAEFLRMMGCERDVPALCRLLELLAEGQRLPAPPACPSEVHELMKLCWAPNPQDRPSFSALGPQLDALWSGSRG
row,Substance,fold induction in ProLabel enzymatic activity as compared to the negative control
1,ProLabel-CDKN1B (pProLabel-CDKN1B) (from UniProt A6QLS3 1-198) (natural protein),15 fold
2,ProLabel-INHBA (pProLabel-INHBA) (from UniProt P07995 21-425) (natural protein),34 fold
3,ProLabel-LEPROTL1 (pProLabel-LEPROTL1) (from UniProt Q32PD8 1-131) (natural protein),42 fold
